Test results published in EP4034238B1 (Centro Nacional de Investigaciones Cardiovasculares Carlos …, dated 2025).

Columns and labels:
[1] = molecular target: T1, ALDH4A1-FLAG protein (mouse ALDH4A1, C-Flag tag) (mouse, UniProt Q8CHT0 24-562, limits assumed); experiment: ELISA screen for ALDH4A1 reactivity (mark in Table 1)
T1 construct: Purified on anti-FLAG M2 gel and coated at 5 ug/ml in the ELISAs; used as lysate of transfected HEK293T cells in the IP; also called murine ALDH4A1-FLAG; not shown: C-terminal FLAG tag
T1 sequence (looked up): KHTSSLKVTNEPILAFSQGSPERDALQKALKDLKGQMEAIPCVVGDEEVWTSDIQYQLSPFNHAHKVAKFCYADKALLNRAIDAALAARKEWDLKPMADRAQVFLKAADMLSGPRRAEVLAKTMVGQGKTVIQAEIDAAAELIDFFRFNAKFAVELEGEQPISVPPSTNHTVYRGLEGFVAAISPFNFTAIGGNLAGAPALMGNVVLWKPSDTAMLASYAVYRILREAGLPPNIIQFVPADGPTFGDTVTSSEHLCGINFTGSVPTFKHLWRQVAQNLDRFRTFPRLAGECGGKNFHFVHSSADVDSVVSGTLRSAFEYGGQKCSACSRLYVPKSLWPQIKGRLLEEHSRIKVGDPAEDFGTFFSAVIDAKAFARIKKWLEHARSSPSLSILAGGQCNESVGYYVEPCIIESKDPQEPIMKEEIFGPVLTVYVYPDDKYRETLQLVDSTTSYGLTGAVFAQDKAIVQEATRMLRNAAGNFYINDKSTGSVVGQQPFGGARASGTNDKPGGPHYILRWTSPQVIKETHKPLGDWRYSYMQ

[2] = molecular target: T2, Aldehyde Dehydrogenase 4 Family Member A1 (ALDH4A1), endogenous mouse protein from aorta lysate (mouse, UniProt Q8CHT0 24-562); experiment: deep proteomics analysis (IP + mass spectrometry)
T2 construct: Native protein precipitated from mouse aorta lysates; also called ALDH4A1 mitochondrial protein
T2 sequence (looked up): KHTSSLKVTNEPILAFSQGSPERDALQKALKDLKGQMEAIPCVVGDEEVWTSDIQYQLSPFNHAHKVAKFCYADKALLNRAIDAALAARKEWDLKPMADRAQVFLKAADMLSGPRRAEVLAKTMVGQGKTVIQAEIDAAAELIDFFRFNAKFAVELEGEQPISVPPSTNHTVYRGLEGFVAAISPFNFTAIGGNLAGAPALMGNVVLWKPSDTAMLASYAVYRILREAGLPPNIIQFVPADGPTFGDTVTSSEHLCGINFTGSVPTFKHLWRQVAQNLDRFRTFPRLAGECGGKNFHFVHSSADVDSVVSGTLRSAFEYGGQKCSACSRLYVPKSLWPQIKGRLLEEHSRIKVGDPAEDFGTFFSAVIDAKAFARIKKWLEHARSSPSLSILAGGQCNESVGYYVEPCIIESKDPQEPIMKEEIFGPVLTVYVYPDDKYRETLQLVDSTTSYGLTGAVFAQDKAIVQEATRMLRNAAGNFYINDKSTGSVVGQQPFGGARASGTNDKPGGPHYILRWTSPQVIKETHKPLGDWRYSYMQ

B1: A12 antibody (antibody, human IgG1, V domains shown)
VH: EVQLVESGGDLVKPGGSLKLSCAASGFTFSSYGMSWVRQTPDKRLEWVATISSGGSYTYYPDSVKGRFTISRDNAKNTLYLQMSSLKSEDTAMYYCARPHVVTTPGWYFDVWGTGTTVTVSS
VL: DIVMTQSPATLSVTPGDRVSLSCRASQSISDYLHWYQQKSHESPRLLIKYASQSISGIPSRFSGSGSGSDFTLSINSVEPEDVGVYYCQNGHSFPLTFGAGTKLELK
notes: also called huA12-IgG1
binding result [1]: binds | binding result [2]: binds
